Test results reported in patent US20140255414A1 (PROBIODRUG, published 2014).
Square brackets hold non-standard residues; d marks the D form. pGlu = O=C1CC[C@@H](C(=O)O)N1; PEG = not defined here

Assays:
Aβ(pE11-30) peptide = molecular target: T1, Aβ(pE11-30) peptide (N-terminal pyroglutamate (Aβ position 11)); test: direct ELISA: AβpE(11-30) coated at 0-500 ng/ml, 1 µg/ml biotinylated antibody pre-incubated with streptavidin-HRP, absorption 450/540 nm
T1 construct: Synthesized peptide; Amine-coupled to a CM5 chip for SPR, or adsorbed to the microplate for the direct ELISA
T1 peptide: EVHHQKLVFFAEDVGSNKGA
Method: AβpE(11-30) peptide with different concentrations was coated over night at 4° C. and then blocked with ELISA-Blocker (−T) 2 h at RT. Anti Aβ11(pE) antibody (clone 13) biotinylated was pre-incubated with streptavidin-HRP conjugate 10 min at RT and diluted in ELISA-Blocker (+T) were performed. Addition of 1 μg/ml antibody (clone 13). Wash cycles in-between incubations with 6×300 μl/well TBS-T buffer (except after peptide coating). TMB/H₂O₂ were added, incubated 30 min at RT (dark) and enzyme reaction was stopped with 1 M H₂SO₄. Absorption was measured at 450/540 nm at TECAN Sunrise.

Aβ(pE11-18)-PEG peptide = molecular target: T2, Aβ(pE11-18)-PEG peptide (reading uncertain); test: ITC at 20 °C, peptide titrated into biotinylated antibody
T2 construct: The PEG attachment is not described further
T2 peptide: [pGlu]VHHQKLV-{PEG}
Method: 1.3.4.1 Determination of Thermodynamic Parameters With ITC, the thermodynamic parameters of the binding of anti Aβ11(pE) antibody from clone 13 at antigen Aβ11(pE) was determined. For the ITC experiment, the peptide Aβ(pE11-18)-PEG was used because the hydrophilic PEG group imparts hydrophilic properties and so it was possible to dissolve the peptide directly in ITC buffer. Former experiments with Aβ(pE11-20) could only be performed with 1-2% DMSO, due to the strong hydrophobicity of the peptide it was necessary to dissolve it with DMSO which could have an effect on the ITC binding properties. At first the antibody was dialyzed against ITC buffer (150 mM NaCl, 25 mM Na₂HPO₄, 25 mM KH₂PO₄, 1 mM EDTA, pH=7.1) over night at 4° C. The lyophilised peptide, stored at −20° C., was dissolved in identical ITC buffer pH=7.1 which was used for antibody dialysis. Both antibody and antigen must be in identical solutions, otherwise large heats of dilution will mask the desired observation. Before the ITC experiment, the concentration of antibody was determined by UV/VIS spectroscopy (see section 1.3.1). At first the antibody with e.g. 5.13 μM (see Table 4) was added into the sample cell and the reference cell was filled with distilled water. Then the antigen was injected into the sample cell with e.g. 81.78 μM (see Table 4). The antigen should be generally in twofold excess to the antibody, bearing in mind that an antibody has two binding sites the antigen was in the cell at least in fourfold excess to the antibody. The 30 injections (1×2 μl and 29×10 μl) were made with a 4-min interval between subsequent injections. The measurement of heat of reaction was performed at 20° C. Furthermore the heat of reaction was determined which was only generated by dilution of the antigen through the titration into ITC buffer (pH=7.1). Therefore the antigen was injected into the sample cell filled with ITC buffer. The heat of reaction which was generated during the titration of the antigen to the antibody was corrected about this value. The analysis of raw data and the determination of the association constant (KA), reaction stoichiometry (n), binding enthalpy (ΔH) and entropy (ΔS) was performed with Origin Software of MicroCal.

B1: biotinylated monoclonal mouse anti Aβ11(pE) antibody (clone 13) (antibody, V domains shown)
VH: QVQLQQPGTELVKPGASVKLSCKASGFTFTSYWMHWVRQRPGQGLEWIGEINPSNGRTNYNEKFKSKATLTVDKSSSTAYMQLSSLTSEDSEVYYCARGDLAWDWSAYWGQGTLVTVSA
VL: DIVMSQSPSSLAVSAGEKVTMSCKSSQSLFYSRTRKNYLAWYQQKPGQSPKLLIYWASTRESGVPDRFTGSGSGTDFTLTISSVQAEDLAVYYCKQSYNLWSFGGGTKLEIKR
modifications: about 2 biotin molecules (NHS-PEO4-Biotin) coupled per antibody; sites not stated
notes: Mouse IgG; also called anti Aβ11(pE)-biotin antibody (clone 13); mAb mouse anti Aβ11(pE)-Biotin
For B1, the binding result (Aβ(pE11-30) peptide) was “binds”, the “-TΔS” value (Aβ(pE11-18)-PEG peptide) was -0.98 kcal/mol and the Ka (Aβ(pE11-18)-PEG peptide) was 8e+06 M⁻¹. For the same binder, the Kd (Aβ(pE11-18)-PEG peptide) was 125 nM and the “Stoichiometry (N)” value (Aβ(pE11-18)-PEG peptide) was 1.66.
